Laboratory results reported in paper PMC8812904.

What was measured:
[1] = confocal counting of punctate bodies, 2 dpai; settings: glycan lost; control: AtVSR4-myc co-expression
[2] = immunoblot of TuMV CP, N. benthamiana; settings: glycan lost; control: AtVSR4-myc co-expression
[3] = GFP fluorescence under UV, N. benthamiana, 3 dpai; settings: glycan lost; control: AtVSR4-myc co-expression
[4] = immunoblot with TBSV P19 co-expression, 2 dpai; settings: glycan lost; control: AtVSR4 wild type with P19
[5] = qRT-PCR of TuMV (+) and (-) RNA, N. benthamiana; settings: glycan lost; control: AtVSR4-myc co-expression
[6] = symptom observation, 16 dpi; settings: glycan lost; control: AtVSR4oe transgenic Arabidopsis
[7] = qRT-PCR of TuMV RNA, transgenic Arabidopsis, 16 dpi; settings: glycan lost; control: AtVSR4oe transgenic Arabidopsis
[8] = anti-myc immunoblot, N. benthamiana, 2 dpai; settings: glycan lost; control: AtVSR4-myc wild type

B1: AtVSR4 (vacuolar sorting receptor 4): AtVSR4TM (protein)
parent chain: MKQLLCYLPWLLLLSLVVSPFNEARFVVEKNSLSVTSPESIKGTHDSAIGNFGIPQYGGSMAGTVVYPKENQKSCKEFSDFSISFKSQPGALPTFLLVDRGDCFFALKVWNAQKAGASAVLVADNVDEPLITMDTPEEDVSSAKYIENITIPSALVTKGFGEKLKKAISGGDMVNLNLDWREAVPHPDDRVEYELWTNSNDECGVKCDMLMEFVKDFKGAAQILEKGGFTQFRPHYITWYCPHAFTLSRQCKSQCINKGRYCAPDPEQDFSSGYDGKDVVVENLRQLCVYKVANETGKPWVWWDYVTDFQIRCPMKEKKYNKDCAESVIKSLGIDSRKIDKCMGDPDADLDNPVLKEEQDAQVGKGTRGDVTILPTLVVNNRQYRGKLEKSAVLKALCSGFEESTEPAICLSTDMETNECLDNNGGCWQDKSANITACKDTFRGKVCVCPIVDGVRFKGDGYSHCEPSGPGRCTINNGGCWHEERDGHAFSACVDKDSVKCECPPGFKGDGVKKCEDINECKEKKACQCPECSCKNTWGSYECSCSGDLLYMRDHDTCISKTGSQVKSAWAAVWLIMLSLGLAAAGAYLVYKYRLRQYMDSEIRAIMAQYMPLDSQPEVPNHTNDERA
[1]
  other: formation of 6K2 punctate bodies: increases
[2]
  other: viral replication, fold_change: increases
[3]
  other: viral replication: increases
[4]
  expression_or_secretion: decreases
[5]
  other: viral replication, fold_change: increases

B2: AtVSR4 (vacuolar sorting receptor 4): AtVSR4TMoe (protein)
parent chain: B1 parent chain
[6]
  other: viral symptom severity in plants: increases
[7]
  other: viral replication: increases

B3: AtVSR4 (vacuolar sorting receptor 4): AtVSR4TM-myc (protein)
parent chain: B1 parent chain
[8]
  expression_or_secretion: decreases
